In IntAct's records for PubMed 29039417:

B1: Protein PTHB1 (Homo sapiens), Q3SYG4 (parent)
chain: MSLFKARDWWSTILGDKEEFDQGCLCLANVDNSGNGQDKIIVGSFMGYLRIFSPHPAKTGDGAQAEDLLLEVDLRDPVLQVEVGKFVSGTEMLHLAVLHSRKLCVYSVSGTLGNVEHGNQCQMKLMYEHNLQRTACNMTYGSFGGVKGRDLICIQSMDGMLMVFEQESYAFGRFLPGFLLPGPLAYSSRTDSFLTVSSCQQVESYKYQVLAFATDADKRQETEQQKLGSGKRLVVDWTLNIGEQALDICIVSFNQSASSVFVLGERNFFCLKDNGQIRFMKKLDWSPSCFLPYCSVSEGTINTLIGNHNNMLHIYQDVTLKWATQLPHIPVAVRVGCLHDLKGVIVTLSDDGHLQCSYLGTDPSLFQAPNVQSRELNYDELDVEMKELQKIIKDVNKSQGVWPMTEREDDLNVSVVVSPNFDSVSQATDVEVGTDLVPSVTVKVTLQNRVILQKAKLSVYVQPPLELTCDQFTFEFMTPDLTRTVSFSVYLKRSYTPSELEGNAVVSYSRPTDRNPDGIPRVIQCKFRLPLKLICLPGQPSKTASHKITIDTNKSPVSLLSLFPGFASQSDDDQVNVMGFHFLGGARITVLASKTSQRYRIQSEQFEDLWLITNELILRLQEYFEKQGVKDFACSFSGSIPLQEYFELIDHHFELRINGEKLEELLSERAVQFRAIQRRLLARFKDKTPAPLQHLDTLLDGTYKQVIALADAVEENQGNLFQSFTRLKSATHLVILLIALWQKLSADQVAILEAAFLPLQEDTQELGWEETVDAAISHLLKTCLSKSSKEQALNLNSQLNIPKDTSQLKKHITLLCDRLSKGGRLCLSTDAAAPQTMVMPGGCTTIPESDLEERSVEQDSTELFTNHRHLTAETPRPEVSPLQGVSE
partner: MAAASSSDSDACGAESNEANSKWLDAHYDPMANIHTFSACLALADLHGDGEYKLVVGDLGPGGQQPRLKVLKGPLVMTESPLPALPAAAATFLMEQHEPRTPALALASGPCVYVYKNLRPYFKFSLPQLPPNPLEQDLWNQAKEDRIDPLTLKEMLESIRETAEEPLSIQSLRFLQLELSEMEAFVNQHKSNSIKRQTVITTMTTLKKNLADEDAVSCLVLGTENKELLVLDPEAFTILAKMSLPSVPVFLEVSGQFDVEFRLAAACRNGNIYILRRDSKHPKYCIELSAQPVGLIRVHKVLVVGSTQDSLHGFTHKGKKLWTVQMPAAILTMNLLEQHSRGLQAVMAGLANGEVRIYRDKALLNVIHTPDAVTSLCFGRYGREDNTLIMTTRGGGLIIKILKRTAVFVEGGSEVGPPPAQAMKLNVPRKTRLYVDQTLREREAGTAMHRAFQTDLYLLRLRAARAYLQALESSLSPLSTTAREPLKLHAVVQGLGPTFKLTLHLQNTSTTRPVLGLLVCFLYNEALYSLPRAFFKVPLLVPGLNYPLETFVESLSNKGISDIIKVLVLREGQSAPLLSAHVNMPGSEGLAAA

Variants of: B1
Conditions: with bbs1_human BBS1, Q8NFJ9

| effect of a mutation on the interaction | Variant |
| --- | --- |
| with no effect | L583A |
| with no effect | M477E |
| with no effect | T731E |
| with no effect | N576E |
| with no effect | Q722E |
| with no effect | V856E |
| with no effect | T836K |
| with no effect | E466K |
| with no effect | E466A |
| with no effect | S593E |
| with no effect | S593K |
| with no effect | C469E |
| with no effect | G628K |
| with no effect | G584K |
| with no effect | L736E |
| with no effect | S423K |
| with no effect | T813K |
| with no effect | L560A |
| with no effect | D429K |
| with no effect | T468K |
| with no effect | T468A |
| with no effect | E887A |
| with no effect | L662E |

| effect of a mutation on the interaction | Variant |
| --- | --- |
| with no effect | R868K |
| disrupting interaction strength | L819K |
| with no effect | L819E |
| disrupting interaction strength | E604V |
| with no effect | S860K |
| with no effect | S558E |
| with no effect | L665E |
| with no effect | E644K |
| with no effect | R483K |
| with no effect | P758K |
| with no effect | F646A |
| with no effect | S639K |
| with no effect | L720A |
| with no effect | V557E |
| with no effect | V557A |
| with no effect | P556K |
| with no effect | S596A |
| with no effect | S596K |
| with no effect | G823K |
| with no effect | D409E |
| with no effect | I550E |
| with no effect | L699A |
| with no effect | H778A |

| effect of a mutation on the interaction | Variant |
| --- | --- |
| with no effect | T702A |
| with no effect | A750E |
| with no effect | L814K |
| with no effect | S635K |
| with no effect | T434E |
| with no effect | T434A |
| with no effect | E501A |
| with no effect | E714A |
| with no effect | A682K |
| with no effect | I588A |
| with no effect | R726E |
| with no effect | A754K |
| with no effect | D711K |
| with no effect | T496E |
| with no effect | P537K |
| with no effect | T478K |
| with no effect | R493A |
| with no effect | R493K |
| with no effect | D410A |
| with no effect | L655K |
| with no effect | K542A |
| with no effect | Q621A |
| with no effect | H694A |

| effect of a mutation on the interaction | Variant |
| --- | --- |
| with no effect | T865E |
| with no effect | S886E |
| with no effect | L692E |
| with no effect | L692A |
| with no effect | F624A |
| with no effect | D470E |
| with no effect | C535K |
| with no effect | C535A |
| with no effect | N614A |
| with no effect | Q627E |
| disrupting interaction strength | Q627T |
| with no effect | L533E |
| with no effect | Q539A |
| with no effect | C525A |
| with no effect | F632A |
| with no effect | S603K |
| with no effect | T405E |
| with no effect | T805K |
| with no effect | A455K |
| with no effect | C843E |
| with no effect | C843A |
| with no effect | L648A |
| with no effect | L648E |

| effect of a mutation on the interaction | Variant |
| --- | --- |
| with no effect | L870K |
| disrupting interaction strength | F721S |
| with no effect | F673A |
| with no effect | K526E |
| with no effect | L784E |
| with no effect | Y508K |
| with no effect | D686K |
| with no effect | E660K |
| disrupting interaction strength | S667F |
| with no effect | H732K |
| with no effect | G638A |
| with no effect | Q791K |
| with no effect | R824A |
| with no effect | T552E |
| with no effect | T552A |
| with no effect | Y703K |
| with no effect | N503A |
| with no effect | F756K |
| with no effect | Q748E |
| with no effect | D572E |
| with no effect | G565K |
| with no effect | G565E |
| with no effect | Q883K |

| effect of a mutation on the interaction | Variant |
| --- | --- |
| with no effect | V713K |
| with no effect | I751K |
| with no effect | P419K |
| with no effect | P463A |
| with no effect | P875E |
| disrupting interaction strength | Q597R |
| with no effect | Q597K |
| with no effect | D517E |
| with no effect | D517A |
| with no effect | L611K |
| with no effect | N719A |
| with no effect | D773E |
| with no effect | L536E |
| with no effect | T871E |
| with no effect | S555A |
| with no effect | V749A |
| with no effect | K492E |
| with no effect | E765K |
| with no effect | D850K |
| with no effect | D850A |
| with no effect | T861K |
| with no effect | P877E |
| with no effect | A775K |

| effect of a mutation on the interaction | Variant |
| --- | --- |
| with no effect | H867A |
| with no effect | P802K |
| with no effect | P802A |
| with no effect | L882E |
| with no effect | L737K |
| with no effect | L737E |
| with no effect | D573K |
| with no effect | L562E |
| with no effect | L562K |
| with no effect | Q471K |
| with no effect | I812K |
| with no effect | E607A |
| with no effect | A730K |
| with no effect | L825A |
| with no effect | P641A |
| with no effect | Q426A |
| with no effect | Q426E |
| with no effect | V461K |
| with no effect | L695E |
| with no effect | L695A |
| with no effect | D762K |
| with no effect | T549E |
| with no effect | G659E |

| effect of a mutation on the interaction | Variant |
| --- | --- |
| with no effect | G659A |
| with no effect | L452A |
| with no effect | L752K |
| with no effect | Q760E |
| with no effect | Q453E |
| with no effect | Q453K |
| with no effect | W741E |
| with no effect | L733E |
| disrupting interaction strength | P691L |
| disrupting interaction strength | F580A |
| with no effect | Q717K |
| with no effect | E790A |
| with no effect | V485A |
| with no effect | R656E |
| with no effect | Q807E |
| with no effect | P497E |
| with no effect | I523K |
| with no effect | S425E |
| with no effect | G767A |
| with no effect | V671A |
| with no effect | P540K |
| with no effect | K661A |
| with no effect | F476E |
